Assays:
[1] = target: T1, Human BCMA-IHM (human, UniProt Q02223 1-54, limits assumed); assay: Biacore (SPR), Fab, human BCMA-IHM, monovalent
T1 construct: any tag or fusion partner is unknown
T1 sequence (looked up): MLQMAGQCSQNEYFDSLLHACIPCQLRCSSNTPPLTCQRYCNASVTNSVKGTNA

[2] = target: T2, Human BCMA on cells (human, UniProt Q02223 1-184); assay: cell binding on human BCMA CHO-S cells
T2 construct: whole, on cells; also called hBCMA-CHO GS; Human BCMA CHO-S
T2 sequence (looked up): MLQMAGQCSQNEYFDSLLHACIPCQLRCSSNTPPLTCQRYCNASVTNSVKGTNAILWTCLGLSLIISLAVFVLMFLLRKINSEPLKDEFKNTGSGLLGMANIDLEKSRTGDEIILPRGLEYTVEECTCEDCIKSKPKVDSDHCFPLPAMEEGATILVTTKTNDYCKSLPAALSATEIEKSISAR

[3] = target: T2, Human BCMA on cells; assay: cell binding on H929 cells (human BCMA)
[4] = target: T3, ADI-38497 WT antibody; assay: SPR (Biacore T200), avidity format: ADI-38497 WT IgG captured on anti-Fab IgG on an HLC chip, anti-PG scFv fusion protein in the mobile phase
T3 construct: also called WT BCMA antibody
Method: The assay procedure was performed using a 10-fold dilution of 10×HBS-EP+(BR-1006-69, Cytiva) as the experimental buffer. […] A gradient dilution of anti-PG scFv (concentration gradient of 1.25 nM-40 nM, 2-fold dilution) was flowed over the chip surface from low to high concentration in a flow rate of 30 μl/min, with an association time of 180 s and a dissociation time of 300 s. Finally, the chip was regenerated with 10 mM glycine-HCl, pH 1.5 (BR-1003-54, Cytiva).
The data results were analyzed by Biacore T200 analysis software (version 3.1) using a 1:1 binding model.

[5] = target: Cynomolgus monkey BCMA-Fc (cynomolgus monkey, UniProt A0A2K5UD97 1-53); assay: ForteBio (BLI), IgG, cynomolgus monkey BCMA-Fc, avid
Sequence of Cynomolgus monkey BCMA-Fc (A0A2K5UD97 entry or part of it): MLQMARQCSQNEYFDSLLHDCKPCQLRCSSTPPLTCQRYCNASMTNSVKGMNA

[6] = target: T1, Human BCMA-IHM; assay: ForteBio (BLI), IgG, human BCMA-IHM, monovalent

B1: ADI-38497 Fab (Fab, V domains shown)
VH: QLQLQESGPGLVKPSETLSLTCTVSGGSIVSSSYYWTWIRQPPGKGLEWIGSISIAGSTYYNPSLKSRVTISVDTSKNQFSLKLSSVTAADTAVYYCARDRGDQILDVWSQGTMVTVSS
VL: DIQMTQSPSSLSASVGDRVTITCRASQSISRYLNWYQQKPGKAPKLLIYAASSLQSGVPSRFSGSGSGTDFTLTISSLQPEDFATYYCQQKYFDITFGGGTKVEIK
Kd [1]: 0.104 nM

B2: ADI-34861 (antibody, V domains shown)
VH: QLQLQESGPGLVKPSETLSLTCTVSGGSISSSSYYWGWIRQPPGKGLEWIGSISYSGSTYYNPSLKSRVTISVDTSKNQFSLKLSSVTAADTAVYYCARDRGDTILDVWGQGTMVTVSS
VL: DIQMTQSPSSLSASVGDRVTITCRASQSISRYLNWYQQKPGKAPKLLIYAASSLQSGVPSRFSGSGSGTDFTLTISSLQPEDFATYYCQQKYFDITFGGGTKVEIK
notes: also called BCMA parent antibody ADI-34861
Cell Binding, FOB (Fold Over Background) [2]: 4 fold | Cell Binding, FON (Fold Over Negative) [3]: 6 fold

B3: ADI-38497 (IgG as tested in Table 2) (antibody, V domains shown)
VH: QLQLQESGPGLVKPSETLSLTCTVSGGSIVSSSYYWTWIRQPPGKGLEWIGSISIAGSTYYNPSLKSRVTISVDTSKNQFSLKLSSVTAADTAVYYCARDRGDQILDVWSQGTMVTVSS
VL: DIQMTQSPSSLSASVGDRVTITCRASQSISRYLNWYQQKPGKAPKLLIYAASSLQSGVPSRFSGSGSGTDFTLTISSLQPEDFATYYCQQKYFDITFGGGTKVEIK
Cell Binding, FOB (Fold Over Background) [2]: 8 fold | Cell Binding, FON (Fold Over Negative) [3]: 26 fold

B4: anti-P329G mutation-specific single chain antibody-rabbit Fc fusion protein (Fc fusion)
chain: EVQLVESGGGLVQPGGSLRLSCAASGFTFSRYWMNWVRQAPGKGLEWVGEITPDSSTINYAPSLKGRFTISRDNAKNSLYLQMNSLRAEDTAVYYCARPYDYGAWFASWGQGTLVTVSSGGGGSGGGGSGGGGSGGGGSQAVVTQEPSLTVSPGGTVTLTCRSSTGAVTTSNYANWVQEKPDHLFTGLIGGTNKRAPGTPARFSGSLLGGKAALTLSGAQPEDEAEYYCALWYSNHWVFGGGTKLTVLGGGGSSKPTCPPPELLGGPSVFIFPPKPKDTLMISRTPEVTCVVVDVSQDDPEVQFTWYINNEQVRTARPPLREQQFNSTIRVVSTLPIAHQDWLRGKEFKCKVHNKALPAPIEKTISKARGQPLEPKVYTMGPPREELSSRSVSLTCMINGFYPSDISVEWEKNGKAEDNYKTTPAVLDSDGSYFLYSKLSVPTSEWQRGDVFTCSVMHEALHNHYTQKSISRSPGK
notes: scFv of the P329G CAR extracellular domain fused to rabbit Fc; also called anti-PG scFv fusion protein; anti-PG scFv
binding result [4]: no binding

B5: ADI-38484 (IgG as tested in Table 2) (antibody, V domains shown)
VH: QVQLVQSGAEVKKPGSSVKVSCKASGGTFSNDVISWVRQAPGQGLEWMGVIIPIFGIANYAQKFQGRVTITADESTSTAYMELSSLRSEDTAVYYCARGRGYYSSWLHDIWGQGTMVTVSS
VL: DIQMTQSPSSLSASVGDRVTITCQASQDITNYLNWYQQKPGKAPKLLIYDASNLETGVPSRFSGSGSGTDFTFTISSLQPEDIATYYCQQAFDLITFGGGTKVEIK
Cell Binding, FOB (Fold Over Background) [2]: 11 fold | Cell Binding, FON (Fold Over Negative) [3]: 35 fold

B6: ADI-38484 Fab (Fab, V domains shown)
VH: QVQLVQSGAEVKKPGSSVKVSCKASGGTFSNDVISWVRQAPGQGLEWMGVIIPIFGIANYAQKFQGRVTITADESTSTAYMELSSLRSEDTAVYYCARGRGYYSSWLHDIWGQGTMVTVSS
VL: DIQMTQSPSSLSASVGDRVTITCQASQDITNYLNWYQQKPGKAPKLLIYDASNLETGVPSRFSGSGSGTDFTFTISSLQPEDIATYYCQQAFDLITFGGGTKVEIK
Kd [1]: 0.0132 nM

B7: ADI-34857 (antibody, V domains shown)
VH: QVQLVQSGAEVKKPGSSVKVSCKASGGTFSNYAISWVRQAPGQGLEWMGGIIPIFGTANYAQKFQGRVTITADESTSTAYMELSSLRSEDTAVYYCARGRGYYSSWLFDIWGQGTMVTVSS
VL: DIQMTQSPSSLSASVGDRVTITCQASQDITNYLNWYQQKPGKAPKLLIYDASNLETGVPSRFSGSGSGTDFTFTISSLQPEDIATYYCQQAFDLITFGGGTKVEIK
notes: also called BCMA parent antibody ADI-34857
Cell Binding, FOB (Fold Over Background) [2]: 2 fold | Cell Binding, FON (Fold Over Negative) [3]: 5 fold | Kd [5]: 5.93 nM | Kd [6]: 27.7 nM

— patent US20250041416A1 (Innovent, published 2025)
